In article PMC3245798:

Target: soluble H ectodomain (sH, amino acids 60-617) of measles virus (measles virus) (UniProt P08362)
Assay: SPR

UniProt P08362, sequence (P08362 60-617 limits assumed): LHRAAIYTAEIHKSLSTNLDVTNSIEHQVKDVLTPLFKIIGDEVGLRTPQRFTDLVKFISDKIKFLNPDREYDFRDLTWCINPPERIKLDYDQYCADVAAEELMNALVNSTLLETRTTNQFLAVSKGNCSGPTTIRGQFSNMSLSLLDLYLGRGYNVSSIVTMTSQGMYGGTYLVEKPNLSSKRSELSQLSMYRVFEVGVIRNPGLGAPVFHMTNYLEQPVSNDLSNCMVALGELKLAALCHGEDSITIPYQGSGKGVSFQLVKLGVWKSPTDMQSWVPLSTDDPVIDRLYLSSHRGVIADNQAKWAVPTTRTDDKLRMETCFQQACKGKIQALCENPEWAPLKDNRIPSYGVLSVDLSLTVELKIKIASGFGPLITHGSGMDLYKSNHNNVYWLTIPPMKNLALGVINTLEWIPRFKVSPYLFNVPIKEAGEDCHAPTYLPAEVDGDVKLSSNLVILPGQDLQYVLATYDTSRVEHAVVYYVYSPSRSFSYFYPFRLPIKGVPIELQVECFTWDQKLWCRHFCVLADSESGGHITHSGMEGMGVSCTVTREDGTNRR

With “soluble nectin-4 ectodomain fused to human IgG1 Fc domain (N4VCC-Fc) (from UniProt Q96NY8 32-349) (Fc fusion)” as the substance, how does the kon relative to that of SLAM and H read?
Its kon relative to that of SLAM and H is 5 fold.
